These results are taken from paper PMC3299734, “In Vivo Depletion of Lymphotoxin-Alpha Expressing Lymphocytes Inhibits Xenogeneic Graft-versus-Host-Disease” (PLoS ONE, 2012).

The labels stand for the following.
B1: TNFRII.Ig (TNFRII IgG fusion protein) (Fc fusion, human, UniProt P20333 23-257, looked up)
chain: LPAQVAFTPYAPEPGSTCRLREYYDQTAQMCCSKCSPGQHAKVFCTKTSDTVCDSCEDSTYTQLWNWVPECLSCGSRCSSDQVETQACTREQNRICTCRPGWYCALSKQEGCRLCAPLRKCRPGFGVARPGTETSDVVCKPCAPGTFSNTTSSTDICRPHQICNVVAIPGNASMDAVCTSTSPTRSMAPGAVHLPQPVSTRSQHTQPTPEPSTAPSTSFLLPMGPSPPAEGSTGD
modifications: labeled with SULFO-TAG NHS-ester as the detecting copy in the competitive blocking ELISA
notes: TNF receptor II (TNFRSF1B), human, fused to Ig; detected with anti-human Fc); also called TNFRII.Fc
B2: human LT-α3 (soluble lymphotoxin-α homotrimer) (ligand, UniProt P01374 35-205, looked up)
chain: LPGVGLTPSAAQTARQHPKMHLAHSTLKPAAHLIGDPSKQNSLLWRANTDRAFLQDGFSLSNNSLLVPTSGIYFVYSQVVFSGKAYSPKATSSPLYLAHEVQLFSSQYPFHVPLLSSQKMVYPGLQEPWLHSMYHGAAFQLTQGDQLSTHTDGIPHLVLSPSTVFFGAFAL
modifications: labeled with biotin in the competitive blocking ELISA only
notes: lymphotoxin-alpha, human, recombinant soluble homotrimer; also called recombinant LT-α3; soluble LT-α

Assay [1] deals with human LT-α1β2 (lymphotoxin-α/lymphotoxin-β heterotrimer) (human) (UniProt P01374). The assay is described as follows: ELISA; wells coated overnight with 0.5-1 µg/ml human LT-α1β2 or LT-α3, blocked with PBS with 5 mg/ml BSA; LT-βR or TNFRII IgG fusion proteins added; detected with HRP goat F(ab')2 anti-human Fc and tetramethylbenzidine; EC50 by 4-parameter fit. In general terms: ELISA stands for enzyme-linked immunosorbent assay.

The target is the same in assay [2]. The assay is described as follows: ELISA; competitive blocking ELISA (Meso Scale Discovery read-out): test molecule serially diluted, incubated 2 hr with biotinylated LT-α3 or LT-α1β2, captured on streptavidin plates 30 min, then SULFO-TAG TNFRII.Ig or LT-βR.Ig added 30 min.
Assay [3] deals with B2. Put plainly: ELISA; wells coated overnight with 0.5-1 µg/ml human LT-α1β2 or LT-α3, blocked with PBS with 5 mg/ml BSA; LT-βR or TNFRII IgG fusion proteins added; detected with HRP goat F(ab')2 anti-human Fc and tetramethylbenzidine; EC50 by 4-parameter fit. The conditions noted are these: both partners purified.
Assay [4] concerns the target B2. Put plainly: ELISA; competitive blocking ELISA (Meso Scale Discovery read-out): test molecule serially diluted, incubated 2 hr with biotinylated LT-α3 or LT-α1β2, captured on streptavidin plates 30 min, then SULFO-TAG TNFRII.Ig or LT-βR.Ig added 30 min. The conditions noted are these: both partners purified.
The target of assay [5] is B1. Described as above. The settings on record: both partners purified.

For “Human LT-βR.Ig (LT-βR IgG fusion protein) (from UniProt P36941 31-227) (Fc fusion)”, the EC50 in assay [1] amounted to 0.048 nM. Also, the concentration for half-maximal inhibition (IC50) in assay [2] amounted to 0.1 nM.
For B1, the concentration giving a half-maximal response (EC50) in assay [3] is 0.133 nM. In addition, the IC50 in assay [4] was found to be 0.83 nM.
Take B2: in assay [5], the binding result is reported as “binds”.

As a reminder, the EC50 is the concentration giving half of the maximal effect. As a reminder, the IC50 is the concentration at which inhibition is half-maximal.
